Measured values taken from patent EP1254174B1.

Key:
Fisp12/mCTGF (mouse) = Fisp12/mCTGF (mouse) (UniProt P29268); test: solid-phase binding isotherm: varied RGD-affinity purified αIIbβ3 on immobilized Fisp12/mCTGF, detected with 125I-mAb15; saturable
[1] = biological target: integrin α1 subunit on 1064SK fibroblasts (human) (UniProt P56199); test: cell-based or functional assay
[2] = biological target: integrin α2 subunit on 1064SK fibroblasts (human) (UniProt P17301); test: cell-based or functional assay
[3] = biological target: integrin α3 subunit on 1064SK fibroblasts (human) (UniProt P26006); test: cell-based or functional assay
[4] = biological target: integrin α4 subunit on 1064SK fibroblasts (human) (UniProt P13612); test: cell-based or functional assay
[5] = biological target: integrin α5β1 (fibronectin receptor) on 1064SK fibroblasts (human) (UniProt P08648); test: cell-based or functional assay
[6] = biological target: integrin α6β1 on human cells (1064SK fibroblasts, endothelial cells) (human) (UniProt P23229); test: cell-based or functional assay
[7] = biological target: integrin αv subunit (αv integrins αvβ1, αvβ3, αvβ5) on 1064SK fibroblasts (human) (UniProt P06756); test: cell-based or functional assay
[8] = biological target: integrin β1 subunit (β1 integrins) on 1064SK fibroblasts (human) (UniProt P05556); test: cell-based or functional assay
[9] = biological target: αvβ3 integrin on human cells (HUVE cells, fibroblasts, platelets) (human) (UniProt P06756); test: cell-based or functional assay

Chain of integrin α6β1 on human cells (1064SK fibroblasts, endothelial cells) (human) (P23229 24-1130, chain 1 of 2): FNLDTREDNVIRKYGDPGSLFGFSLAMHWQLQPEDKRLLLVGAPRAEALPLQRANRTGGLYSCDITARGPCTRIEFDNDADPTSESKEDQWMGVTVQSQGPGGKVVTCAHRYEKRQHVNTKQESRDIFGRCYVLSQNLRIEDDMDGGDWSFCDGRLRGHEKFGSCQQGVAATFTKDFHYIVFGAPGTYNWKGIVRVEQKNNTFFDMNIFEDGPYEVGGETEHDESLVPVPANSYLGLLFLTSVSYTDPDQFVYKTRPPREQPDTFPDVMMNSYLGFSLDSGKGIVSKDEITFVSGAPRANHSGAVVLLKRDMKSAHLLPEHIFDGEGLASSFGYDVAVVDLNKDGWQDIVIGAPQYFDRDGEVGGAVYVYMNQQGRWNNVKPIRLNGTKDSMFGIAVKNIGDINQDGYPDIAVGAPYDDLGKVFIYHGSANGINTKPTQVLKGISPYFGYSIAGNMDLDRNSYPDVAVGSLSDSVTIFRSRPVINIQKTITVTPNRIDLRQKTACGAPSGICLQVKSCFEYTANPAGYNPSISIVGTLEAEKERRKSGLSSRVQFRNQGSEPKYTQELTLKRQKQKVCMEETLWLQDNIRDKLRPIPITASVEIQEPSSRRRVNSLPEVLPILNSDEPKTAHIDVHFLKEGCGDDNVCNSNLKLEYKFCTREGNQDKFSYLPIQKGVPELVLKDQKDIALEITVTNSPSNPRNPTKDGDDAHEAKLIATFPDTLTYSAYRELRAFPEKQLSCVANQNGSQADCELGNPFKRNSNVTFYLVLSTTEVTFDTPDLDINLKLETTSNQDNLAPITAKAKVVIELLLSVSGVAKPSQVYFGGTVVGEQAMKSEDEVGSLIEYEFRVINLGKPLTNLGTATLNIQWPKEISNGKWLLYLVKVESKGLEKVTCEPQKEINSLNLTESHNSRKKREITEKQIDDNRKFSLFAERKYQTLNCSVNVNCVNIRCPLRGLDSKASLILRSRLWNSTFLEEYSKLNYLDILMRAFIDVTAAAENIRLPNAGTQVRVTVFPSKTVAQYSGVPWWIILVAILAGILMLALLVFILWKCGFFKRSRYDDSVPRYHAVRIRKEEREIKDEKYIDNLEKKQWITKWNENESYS
Chain of integrin α6β1 on human cells (1064SK fibroblasts, endothelial cells) (human) (P05556 21-798, chain 2 of 2, further chain): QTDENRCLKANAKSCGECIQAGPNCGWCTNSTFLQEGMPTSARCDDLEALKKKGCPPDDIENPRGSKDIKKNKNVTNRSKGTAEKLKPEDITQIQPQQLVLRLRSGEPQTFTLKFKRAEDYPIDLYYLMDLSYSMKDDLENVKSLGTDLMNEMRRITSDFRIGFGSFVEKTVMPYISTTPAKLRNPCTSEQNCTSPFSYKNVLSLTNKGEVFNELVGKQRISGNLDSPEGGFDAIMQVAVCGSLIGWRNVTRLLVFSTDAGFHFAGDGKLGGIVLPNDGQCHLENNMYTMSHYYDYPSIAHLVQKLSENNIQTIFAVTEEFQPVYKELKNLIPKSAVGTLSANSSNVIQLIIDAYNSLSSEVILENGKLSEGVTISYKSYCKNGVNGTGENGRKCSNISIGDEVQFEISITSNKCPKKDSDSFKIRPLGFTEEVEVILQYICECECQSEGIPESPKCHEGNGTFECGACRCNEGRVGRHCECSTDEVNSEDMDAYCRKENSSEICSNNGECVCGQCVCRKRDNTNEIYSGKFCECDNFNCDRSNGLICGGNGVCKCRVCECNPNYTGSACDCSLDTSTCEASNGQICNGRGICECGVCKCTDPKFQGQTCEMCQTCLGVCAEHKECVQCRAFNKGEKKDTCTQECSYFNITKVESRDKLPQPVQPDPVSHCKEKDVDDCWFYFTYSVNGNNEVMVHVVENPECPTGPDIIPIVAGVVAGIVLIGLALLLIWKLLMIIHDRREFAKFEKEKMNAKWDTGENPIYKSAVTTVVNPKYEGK
Chain of integrin β1 subunit (β1 integrins) on 1064SK fibroblasts (human) (P05556 21-798): as the sequence (P05556 21-798, chain 2 of 2, further chain) above
Chain of integrin α3 subunit on 1064SK fibroblasts (human) (P26006 33-1051): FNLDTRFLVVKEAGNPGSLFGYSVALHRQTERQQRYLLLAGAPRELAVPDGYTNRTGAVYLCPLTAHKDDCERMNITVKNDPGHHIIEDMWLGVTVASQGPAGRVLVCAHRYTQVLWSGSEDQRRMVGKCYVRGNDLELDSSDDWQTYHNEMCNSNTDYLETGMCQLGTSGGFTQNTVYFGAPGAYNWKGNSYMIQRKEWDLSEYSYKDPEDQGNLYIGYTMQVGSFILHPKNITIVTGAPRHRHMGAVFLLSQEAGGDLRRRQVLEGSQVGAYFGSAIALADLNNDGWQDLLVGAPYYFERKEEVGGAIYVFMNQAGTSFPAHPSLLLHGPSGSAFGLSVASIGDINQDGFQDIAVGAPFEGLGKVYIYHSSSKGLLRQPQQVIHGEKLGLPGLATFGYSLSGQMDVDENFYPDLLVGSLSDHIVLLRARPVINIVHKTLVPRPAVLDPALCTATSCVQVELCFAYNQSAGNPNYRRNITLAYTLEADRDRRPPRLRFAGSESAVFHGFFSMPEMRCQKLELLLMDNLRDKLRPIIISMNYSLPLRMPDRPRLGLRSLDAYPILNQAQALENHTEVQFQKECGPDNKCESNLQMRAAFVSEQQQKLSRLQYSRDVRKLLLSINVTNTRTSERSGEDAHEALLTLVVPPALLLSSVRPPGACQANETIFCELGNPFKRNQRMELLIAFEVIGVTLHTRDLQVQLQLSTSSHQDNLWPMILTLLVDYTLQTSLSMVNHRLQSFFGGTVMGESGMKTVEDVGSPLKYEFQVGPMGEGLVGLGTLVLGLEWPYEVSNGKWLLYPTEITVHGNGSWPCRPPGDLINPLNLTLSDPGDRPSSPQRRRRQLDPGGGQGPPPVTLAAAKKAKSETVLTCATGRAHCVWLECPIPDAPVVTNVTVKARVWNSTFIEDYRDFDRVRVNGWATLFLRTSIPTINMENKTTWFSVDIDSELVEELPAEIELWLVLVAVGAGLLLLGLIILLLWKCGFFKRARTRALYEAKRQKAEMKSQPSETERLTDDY
Chain of Fisp12/mCTGF (mouse) (P29268 26-348 E161K limits assumed, form in doubt): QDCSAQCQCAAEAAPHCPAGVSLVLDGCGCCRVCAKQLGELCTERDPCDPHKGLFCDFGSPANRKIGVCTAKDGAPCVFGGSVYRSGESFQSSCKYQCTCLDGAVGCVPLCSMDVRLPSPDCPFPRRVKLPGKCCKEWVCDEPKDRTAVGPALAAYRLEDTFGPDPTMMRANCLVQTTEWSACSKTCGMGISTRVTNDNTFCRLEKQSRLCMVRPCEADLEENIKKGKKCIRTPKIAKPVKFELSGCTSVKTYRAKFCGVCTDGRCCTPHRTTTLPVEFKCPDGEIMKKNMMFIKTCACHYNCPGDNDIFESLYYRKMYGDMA
Chain of integrin αv subunit (αv integrins αvβ1, αvβ3, αvβ5) on 1064SK fibroblasts (human) (P06756 31-1048): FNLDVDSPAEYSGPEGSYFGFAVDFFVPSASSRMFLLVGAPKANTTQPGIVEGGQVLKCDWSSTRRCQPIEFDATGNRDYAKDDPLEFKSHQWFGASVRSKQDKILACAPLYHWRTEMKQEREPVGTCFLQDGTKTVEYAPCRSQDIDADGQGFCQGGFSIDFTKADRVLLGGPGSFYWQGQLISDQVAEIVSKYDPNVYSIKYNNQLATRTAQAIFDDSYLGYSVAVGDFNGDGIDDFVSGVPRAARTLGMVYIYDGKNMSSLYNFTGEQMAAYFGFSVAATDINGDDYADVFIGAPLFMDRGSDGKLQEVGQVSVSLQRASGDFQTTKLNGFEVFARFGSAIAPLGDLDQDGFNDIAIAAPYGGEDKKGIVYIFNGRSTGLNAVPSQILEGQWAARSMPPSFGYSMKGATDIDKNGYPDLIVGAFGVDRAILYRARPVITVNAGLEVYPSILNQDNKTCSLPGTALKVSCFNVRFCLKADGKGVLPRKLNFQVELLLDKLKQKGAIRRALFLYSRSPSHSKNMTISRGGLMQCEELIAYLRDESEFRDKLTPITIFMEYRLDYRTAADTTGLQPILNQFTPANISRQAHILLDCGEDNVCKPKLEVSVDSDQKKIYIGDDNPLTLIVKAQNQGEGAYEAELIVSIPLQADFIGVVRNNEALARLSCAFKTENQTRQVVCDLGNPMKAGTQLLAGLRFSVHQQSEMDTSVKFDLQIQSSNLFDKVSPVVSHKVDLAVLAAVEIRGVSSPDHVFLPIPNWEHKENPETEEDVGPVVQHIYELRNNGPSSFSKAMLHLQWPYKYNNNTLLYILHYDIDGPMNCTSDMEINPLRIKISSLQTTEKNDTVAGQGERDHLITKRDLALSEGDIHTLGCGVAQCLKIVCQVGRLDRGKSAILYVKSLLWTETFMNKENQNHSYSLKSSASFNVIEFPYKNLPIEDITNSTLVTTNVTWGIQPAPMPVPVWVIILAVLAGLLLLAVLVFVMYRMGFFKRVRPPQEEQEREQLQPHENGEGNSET

With “activated αIIbβ3 (RGD-affinity purified from human platelet lysates) (from UniProt P08514 32-1039; P05106 27-788) (receptor)” as the substance, how does the half-saturation concentration (Fisp12/mCTGF (mouse)) read?
Its half-saturation concentration is 15 nM.

Which A620, 1064SK adhesion to Cyr61 (2 µg/ml) after anti-α1 antibody (40 µg/ml); control without antibody 0.58 [1] does the source give for “human Cyr61 (from UniProt O00622 25-381) (ligand)” here?
Its A620, 1064SK adhesion to Cyr61 (2 µg/ml) after anti-α1 antibody (40 µg/ml); control without antibody 0.58 is 0.54 A620.

What about the A620, 1064SK adhesion to Cyr61 (2 µg/ml) after anti-α2 antibody (40 µg/ml); control without antibody 0.58 [2] of the same substance?
Its A620, 1064SK adhesion to Cyr61 (2 µg/ml) after anti-α2 antibody (40 µg/ml); control without antibody 0.58 is 0.6 A620.

What about the A620, 1064SK adhesion to Cyr61 (2 µg/ml) after anti-α3 antibody (40 µg/ml); control without antibody 0.58 [3] of the same substance?
The A620, 1064SK adhesion to Cyr61 (2 µg/ml) after anti-α3 antibody (40 µg/ml); control without antibody 0.58 was 0.55 A620.

And the A620, 1064SK adhesion to Cyr61 (2 µg/ml) after anti-α4 antibody (40 µg/ml); control without antibody 0.58 [4]?
Its A620, 1064SK adhesion to Cyr61 (2 µg/ml) after anti-α4 antibody (40 µg/ml); control without antibody 0.58 is 0.56 A620.

What about the A620, 1064SK adhesion to Cyr61 (2 µg/ml) after anti-α5 antibody (40 µg/ml); no addition 0.75 [5] of the same substance?
Its A620, 1064SK adhesion to Cyr61 (2 µg/ml) after anti-α5 antibody (40 µg/ml); no addition 0.75 is 0.77 A620.

And the A620, 1064SK adhesion to Cyr61 (2 µg/ml) after anti-α6 antibody (20 µg/ml); 0.53 without antibody [6]?
Its A620, 1064SK adhesion to Cyr61 (2 µg/ml) after anti-α6 antibody (20 µg/ml); 0.53 without antibody is 0.08 A620.

And the percent inhibition of 1064SK adhesion to Cyr61 by anti-α6 antibody [6]?
Its percent inhibition of 1064SK adhesion to Cyr61 by anti-α6 antibody is over 80%.

And the percent inhibition of 1064SK adhesion to wild-type Cyr61 by anti-α6 antibody (20 µg/ml) [6]?
The percent inhibition of 1064SK adhesion to wild-type Cyr61 by anti-α6 antibody (20 µg/ml) was 78%.

And the A620, 1064SK adhesion to Cyr61 (2 µg/ml) after anti-αv antibody (40 µg/ml); no addition 0.75 [7]?
Its A620, 1064SK adhesion to Cyr61 (2 µg/ml) after anti-αv antibody (40 µg/ml); no addition 0.75 is 0.73 A620.

And the A620, 1064SK adhesion to Cyr61 (2 µg/ml) after anti-β1 antibody JB1A (50 µg/ml); 0.53 without antibody [8]?
Its A620, 1064SK adhesion to Cyr61 (2 µg/ml) after anti-β1 antibody JB1A (50 µg/ml); 0.53 without antibody is 0.14 A620.

And the percent inhibition of 1064SK adhesion to Cyr61 by anti-β1 antibody JB1A [8]?
The percent inhibition of 1064SK adhesion to Cyr61 by anti-β1 antibody JB1A was 75%.

What about the relative binding capacity of HUVE cells on wild-type Cyr61 (5 µg/ml) after anti-αvβ3 antibody LM609 (40 µg/ml); no pre-incubation = 100 [9] of the same substance?
The relative binding capacity of HUVE cells on wild-type Cyr61 (5 µg/ml) after anti-αvβ3 antibody LM609 (40 µg/ml); no pre-incubation = 100 was 42%.

mouse laminin (ligand) was tested. Which A620, 1064SK adhesion to laminin (5 µg/ml) after anti-α6 antibody; 0.62 without antibody [6] did it give?
The A620, 1064SK adhesion to laminin (5 µg/ml) after anti-α6 antibody; 0.62 without antibody was 0.48 A620.

What about the percent inhibition of 1064SK adhesion to laminin by anti-α6 antibody [6] of the same substance?
Its percent inhibition of 1064SK adhesion to laminin by anti-α6 antibody is 22%.

For “rat tail Type-I collagen (from UniProt P02454 152-1207; P02466 86-1125) (ligand)”, which A620, 1064SK adhesion to type I collagen (2 µg/ml) after anti-β1 antibody JB1A; 0.56 without antibody [8] is on record?
Its A620, 1064SK adhesion to type I collagen (2 µg/ml) after anti-β1 antibody JB1A; 0.56 without antibody is 0.21 A620.

What about the percent inhibition of 1064SK adhesion to type I collagen by anti-β1 antibody JB1A [8] of the same substance?
Its percent inhibition of 1064SK adhesion to type I collagen by anti-β1 antibody JB1A is 62%.
